In article PMC8602370:
Values joined by “and” are separate entries in the source; they are usually repeats but may differ in a detail not shown here. Equal values may be shown once.

Legend:
[1] = molecular target: PARP1 (residues 1 to 1014), P09874; experiment: SPR; biotinylated DNA SSB captured on a streptavidin chip, PARP1 (40 nM) flowed on to form a PARP1/DNA complex, then HPF1 injected at 62.5-2000 nM with 5 µM EB47 in the buffer; 25 mM HEPES pH 7.4, 250 mM NaCl, 0.1 mM TCEP, 1 mM EDTA, 0.05% Tween20; 1:1 model, steady-state plateaus and kinetic fit; details: remark: other sources report otherwise
Chain of PARP1 (residues 1 to 1014), P09874 (P09874 whole entry, the tested form may be a part): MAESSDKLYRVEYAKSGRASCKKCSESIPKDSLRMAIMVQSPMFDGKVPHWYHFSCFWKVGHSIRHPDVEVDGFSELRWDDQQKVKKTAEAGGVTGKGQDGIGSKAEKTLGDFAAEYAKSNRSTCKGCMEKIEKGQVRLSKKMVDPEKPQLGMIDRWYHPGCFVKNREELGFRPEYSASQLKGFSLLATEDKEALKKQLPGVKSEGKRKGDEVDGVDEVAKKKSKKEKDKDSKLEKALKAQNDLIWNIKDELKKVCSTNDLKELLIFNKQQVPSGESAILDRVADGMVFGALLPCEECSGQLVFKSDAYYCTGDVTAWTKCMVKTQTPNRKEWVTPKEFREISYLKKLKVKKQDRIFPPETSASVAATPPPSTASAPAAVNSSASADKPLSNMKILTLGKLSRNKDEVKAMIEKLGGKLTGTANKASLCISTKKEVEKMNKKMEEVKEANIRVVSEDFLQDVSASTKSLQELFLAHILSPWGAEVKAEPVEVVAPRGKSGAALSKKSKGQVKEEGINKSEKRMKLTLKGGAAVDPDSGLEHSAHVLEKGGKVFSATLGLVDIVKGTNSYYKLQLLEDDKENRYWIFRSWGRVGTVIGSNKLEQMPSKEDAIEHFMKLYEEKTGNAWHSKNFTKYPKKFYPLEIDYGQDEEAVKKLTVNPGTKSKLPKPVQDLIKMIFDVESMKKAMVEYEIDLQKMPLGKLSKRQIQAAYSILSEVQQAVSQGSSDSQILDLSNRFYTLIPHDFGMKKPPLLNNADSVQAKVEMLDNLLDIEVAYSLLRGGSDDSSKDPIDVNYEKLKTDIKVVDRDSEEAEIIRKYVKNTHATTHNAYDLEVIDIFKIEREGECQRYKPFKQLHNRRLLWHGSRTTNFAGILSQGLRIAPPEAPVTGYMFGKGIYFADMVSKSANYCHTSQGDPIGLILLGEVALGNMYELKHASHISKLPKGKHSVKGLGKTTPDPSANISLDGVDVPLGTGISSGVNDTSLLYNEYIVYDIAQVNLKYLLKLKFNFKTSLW

[2] = molecular target: PARP1 (residues 1 to 1014), P09874; experiment: as above; details: remark: other sources report otherwise; remark: listed apart in the source

B1: Histone PARylation Factor 1 (HPF1), Q9NWY4 1-346 (natural protein)
chain: MVGGGGKRRPGGEGPQCEKTTDVKKSKFCEADVSSDLRKEVENHYKLSLPEDFYHFWKFCEELDPEKPSDSLSASLGLQLVGPYDILAGKHKTKKKSTGLNFNLHWRFYYDPPEFQTIIIGDNKTQYHMGYFRDSPDEFPVYVGINEAKKNCIIVPNGDNVFAAVKLFLTKKLREITDKKKINLLKNIDEKLTEAARELGYSLEQRTVKMKQRDKKVVTKTFHGAGLVVPVDKNDVGYRELPETDADLKRICKTIVEAASDEERLKAFAPIQEMMTFVQFANDECDYGMGLELGMDLFCYGSHYFHKVAGQLLPLAYNLLKRNLFAEIIEEHLANRSQENIDQLAA
- Kd [1]: 0.48 µM and 0.617 µM
- koff [1]: 0.071 s⁻¹
- kon [1]: 112000 M⁻¹ s⁻¹
- Kd [2]: 0.54 µM and 0.55 µM
- koff [2]: 0.06 s⁻¹
- kon [2]: 100000 M⁻¹ s⁻¹
